Measurements reported in patent US20020025558A1.

Target: human MADr3 (human)
Assay: cell-based or functional assay

signal to noise ratio of 33P phosphorylation at 0.01 units of TGF-β receptor, MADr3 coated at 750 ng/well: 50 | signal to noise ratio of 33P phosphorylation on MADr3-coated FlashPlate: > 10
Substance: TGF-β receptor
